Reference: paper PMC10256154, “An unbroken network of interactions connecting flagellin domains is required for motility in viscous environments” (PLOS Pathogens, 2023)

Target: the molecule itself
Experiment: SEC; Superdex 200 Increase 10/300 GL; recombinant full-length FliC proteins after NiNTA, PBS buffer

B1: full-length FliC Δ204–205 of P. aeruginosa PAO1, recombinant (natural protein)
chain: MALTVNTNIASLNTQRNLNASSNDLNTSLQRLTTGYRINSAKDDAAGLQISNRLSNQISGLNVATRNANDGISLAQTAEGALQQSTNILQRIRDLALQSANGSNSDADRAALQKEVAAQQAELTRISDTTTFGGRKLLDGSFGTTSFQVGSNAYETIDISLQNASASAIGSYQVGSNGAGTVASVAGTATASGIASGTVNLVGQVKNIAIAAGDSAKAIAEKMDGAIPNLSARARTVFTADVSGVTGGSLNFDVTVGSNTVSLAGVTSTQDLADQLNSNSSKLGITASINDKGVLTITSATGENVKFGAQTGTATAGQVAVKVQGSDGKFEAAAKNVVAAGTAATTTIVTGYVQLNSPTAYSVSGTGTQASQVFGNASAAQKSSVASVDISTADGAQNAIAVVDNALAAIDAQRADLGAVQNRFKNTIDNLTNISENATNARSRIKDTDFAAETAALSKNQVLQQAGTAILAQANQLPQAVLSLLR
notes: Cloned in pET28-a with a C-terminal polyhistidine tag; source: E. coli BL21(DE3), purified (NiNTA, size-exclusion chromatography)
stoichiometry N: 2
